The text below walks through data of US20150344570A1 (published 2015).

In one experiment the target is T1, FcγRIIIa (human, UniProt P08637 17-208).
T1 construct: extracellular domain; Soluble extracellular domain with a C-terminal His tag, expressed in FreeStyle293 cells and used as the analyte in Biacore; also called FcgRIIIa; CD16A; not shown: His tag attached to the C terminus
Kind of experiment: SPR (Biacore); KD of GpH7-TA7/GpH7-B78/GpL16-k0 for FcγRIIIa divided by the KD of this antibody (this row is the reference itself). On the procedure: The prepared antibodies were compared for the FcγRIIIa-binding activity using, as an indicator, KD for FcγRIIIa that was determined according to the method described in Reference Example 2.
Analysis of interaction between objective antibody and the FcγR was carried out using Biacore T100 (GE Healthcare). HBS-EP+ (GE Healthcare) was used as the running buffer, and the measurement temperature was set to 25° C. Chips produced by immobilizing the antigen peptide by the amine coupling method to a Series S Sencor Chip CM5 (GE Healthcare), or alternatively, chips produced by allowing preliminarily biotinylated antigen peptides to interact with and immobilize onto a Series S Sensor Chip SA (certified) (GE Healthcare) were used. Antibodies of interest were captured onto an antigen peptide-immobilized chip, and allowed to interact to each FcγR diluted with running buffer. To regenerate and repeatedly use the chip, the antibodies captured on the chip were washed off by reacting 10 mM glycine-HCl, pH 1.5.
Specifically, to calculate association rate constant ka (L/mol/s) and dissociation rate constant kd (1/s), sensorgrams obtained by measurement were processed for global fitting by Biacore Evaluation Software using 1:1 Langmuir binding model and dissociation constant KD (mol/1) was calculated from the resulting values.

The next experiment addresses FcγRIIb (human, UniProt P31994 43-217). Kind of experiment: SPR (Biacore), KD.
Another experiment deals with FcγRIa (human, UniProt P12314 16-292). Briefly: SPR (Biacore 4000). In general terms: Surface plasmon resonance follows binding to a sensor surface in real time, without labels.
The target of a further experiment is FcγRIIIa F (human, UniProt P08637 17-208). Briefly: SPR (Biacore), KD; the variant that showed the most enhancement.
Chain of FcγRIIIa F (P08637 17-208): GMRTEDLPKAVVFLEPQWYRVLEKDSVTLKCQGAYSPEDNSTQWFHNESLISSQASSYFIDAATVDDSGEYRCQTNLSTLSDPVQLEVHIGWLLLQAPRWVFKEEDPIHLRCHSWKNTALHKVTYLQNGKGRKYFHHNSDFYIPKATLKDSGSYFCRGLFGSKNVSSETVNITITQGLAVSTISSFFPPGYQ

T1 sequence (P08637 17-208): as above
Chain of FcγRIa (P12314 16-292): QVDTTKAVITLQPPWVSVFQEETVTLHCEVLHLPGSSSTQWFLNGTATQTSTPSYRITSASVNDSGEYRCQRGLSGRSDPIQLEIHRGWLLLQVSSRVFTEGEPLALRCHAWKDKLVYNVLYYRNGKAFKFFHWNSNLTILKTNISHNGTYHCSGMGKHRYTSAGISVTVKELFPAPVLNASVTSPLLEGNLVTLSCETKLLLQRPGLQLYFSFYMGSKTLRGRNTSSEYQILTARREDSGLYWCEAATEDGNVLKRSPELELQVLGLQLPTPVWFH

B1: GpH7-TA7/GpH7-B78/GpL16-k0 (antibody, human IgG1, kappa)
heavy 1: QVQLVQSGAEVKKPGASVTVSCKASGYTFTDYEMHWIRQPPGEGLEWIGAIDPKTGDTAYSESFQDRVTLTADKSTSTAYMELSSLTSEDTAVYYCTRFYSYTYWGQGTLVTVSSASTKGPSVFPLAPSSKSTSGGTAALGCLVKDYFPEPVTVSWNSGALTSGVHTFPAVLQSSGLYSLSSVVTVPSSSLGTQTYICNVNHKPSNTKVDKKVEPKSCDKTHTCPPCPAPEYLWGPSVFLFPPKPKDTLMISRTPEVTCVVVDVSHEDPEVKFNWYVDGVEVHNAKTKPREEQYNATYRVVSVLTVLHQDWLNGKEYKCKVSNKALPAPIEKTISKAKGQPREPQVYTLPPSRKELTKNQVSLTCLVKGFYPSDIAVEWESNGQPENNYKTTPPVLDSDGSFFLYSKLTVDKSRWQQGNVFSCSVMHEALHNRYTQKSLSLSP
heavy 2: QVQLVQSGAEVKKPGASVTVSCKASGYTFTDYEMHWIRQPPGEGLEWIGAIDPKTGDTAYSESFQDRVTLTADKSTSTAYMELSSLTSEDTAVYYCTRFYSYTYWGQGTLVTVSSASTKGPSVFPLAPSSKSTSGGTAALGCLVKDYFPEPVTVSWNSGALTSGVHTFPAVLQSSGLYSLSSVVTVPSSSLGTQTYICNVNHKPSNTKVDKKVEPKSCDKTHTCPPCPAPELLGGPDVFLFPPKPKDTLMISRTPEVTCVVVDVSHEDPEVKFNWYVDGVEVHNAKTKPREEQYNSTYRVVSVLTVLHQDWLNGKEYKCKVSNKALPLPEEKTISKAKGQPREPQVYTLPPSRDELTKNQVSLTCLVKGFYPSDIAVEWESNGQPENNYKTTPPVLDSDGSFFLYSKLTVDKSRWQQGNVFSCSVMHEALHNHYTQESLSLSP
light: DIVMTQSPLSLPVTPGEPASISCQASESLVHSNRNTYLHWYLQKPGQSPQLLIYKVSNRFSGVPDRFSGSGSGTDFTLKISRVEAEDVGVYYCSQNTHVPPTFGQGTKVEIERTVAAPSVFIFPPSDEQLKSGTASVVCLLNNFYPREAKVQWKVDNALQSGNSQESVTEQDSKDSTYSLSSTLTLSKADYEKHKVYACEVTHQGLSSPVTKSFNRGEC
notes: Heterodimerized anti-glypican-3 IgG1 antibody with two different H chains (same variable region GpH7) and a common L chain; also called TA7/B78
Consider B1, for which the KD ratio in the experiment with FcγRIIIa turned out to be 1.

B2: H240-Kn120/H240-Hl068/L73-k0 (antibody, human IgG1, kappa)
heavy 1: QDQLVQSGAEVKKPGASVKVSCKASGFNIKDTYIQWVRQAPGQGLEWMGRIDPLRKQTKYREKFEGRVTITADTSTNTAYMELSSLRSEDTAVYYCVRSGREFDYWGQGTLVTVSSASTKGPSVFPLAPSSKSTSGGTAALGCLVKDYFPEPVTVSWNSGALTSGVHTFPAVLQSSGLYSLSSVVTVPSSSLGTQTYICNVNHKPSNTKVDKKVEPKSCDKTHTCPPCPAPEYYWGPMVFLFPPKPKDTLMISRTPEVTCVVVDVSDEDPEVKFNWYVDGVEVHNAKTKPREEQYNATYRVVSVLTVLHQDWLNGKEYKCKVSNKDLPAPIEKTISKAKGQPREPQVCTLPPSRDELTKNQVSLWCLVKGFYPSDIAVEWESNGQPENNYKTTPPVLDSDGSFFLYSKLTVDKSRWQQGNVFSCSVMHEALHNHYTQKSLSLSP
heavy 2: QDQLVQSGAEVKKPGASVKVSCKASGFNIKDTYIQWVRQAPGQGLEWMGRIDPLRKQTKYREKFEGRVTITADTSTNTAYMELSSLRSEDTAVYYCVRSGREFDYWGQGTLVTVSSASTKGPSVFPLAPSSKSTSGGTAALGCLVKDYFPEPVTVSWNSGALTSGVHTFPAVLQSSGLYSLSSVVTVPSSSLGTQTYICNVNHKPSNTKVDKKVEPKSCDKTHTCPPCPAPELLGGPSVFLFPPKPKDTLMISRTPEVTCVVVDVSHEEPEVKFNWYVDGVEVHNAKTKPREEQYNSTYRVVSVLTVLHQDWLNGKEYKCKVSNDALPKPIEETISKAKGQPREPQVYTLPPSRCELTKNQVSLSCAVKGFYPSDIAVEWESNGQPENNYKTTPPVLDSDGSFFLVSKLTVDKSRWQQGNVFSCSVMHEALHNHYTQKSLSLSP
light: DIQMTQSPSSLSASVGDRVTITCRASQDIHKYIAWYQQKPGQAPRLLIQYTSTLQPGVPSRFSGSGSGTDYTFTISSLQPEDIATYYCLQYEQLRTFGGGTKVEIKRTVAAPSVFIFPPSDEQLKSGTASVVCLLNNFYPREAKVQWKVDNALQSGNSQESVTEQDSKDSTYSLSSTLTLSKADYEKHKVYACEVTHQGLSSPVTKSFNRGEC
notes: S239M introduced into H240-Kn067
Take B2: the “fold FcgRIIb-binding activity against native IgG1” value with FcγRIIb is ~50 times.

B3: H240-Kn120/H240-Hl073/L73-k0 (antibody, human IgG1, kappa)
heavy 1: QDQLVQSGAEVKKPGASVKVSCKASGFNIKDTYIQWVRQAPGQGLEWMGRIDPLRKQTKYREKFEGRVTITADTSTNTAYMELSSLRSEDTAVYYCVRSGREFDYWGQGTLVTVSSASTKGPSVFPLAPSSKSTSGGTAALGCLVKDYFPEPVTVSWNSGALTSGVHTFPAVLQSSGLYSLSSVVTVPSSSLGTQTYICNVNHKPSNTKVDKKVEPKSCDKTHTCPPCPAPEYYWGPMVFLFPPKPKDTLMISRTPEVTCVVVDVSDEDPEVKFNWYVDGVEVHNAKTKPREEQYNATYRVVSVLTVLHQDWLNGKEYKCKVSNKDLPAPIEKTISKAKGQPREPQVCTLPPSRDELTKNQVSLWCLVKGFYPSDIAVEWESNGQPENNYKTTPPVLDSDGSFFLYSKLTVDKSRWQQGNVFSCSVMHEALHNHYTQKSLSLSP
heavy 2: QDQLVQSGAEVKKPGASVKVSCKASGFNIKDTYIQWVRQAPGQGLEWMGRIDPLRKQTKYREKFEGRVTITADTSTNTAYMELSSLRSEDTAVYYCVRSGREFDYWGQGTLVTVSSASTKGPSVFPLAPSSKSTSGGTAALGCLVKDYFPEPVTVSWNSGALTSGVHTFPAVLQSSGLYSLSSVVTVPSSSLGTQTYICNVNHKPSNTKVDKKVEPKSCDKTHTCPPCPAPELLSGPSVFLFPPKPKDTLMISRTPEVTCVVVDVSHEEPEVKFNWYVDGVEVHNAKTKPREEQYNSTYRVVSVLTVLHQDWLNGKEYKCKVSNDALPKPIEETISKAKGQPREPQVYTLPPSRCELTKNQVSLSCAVKGFYPSDIAVEWESNGQPENNYKTTPPVLDSDGSFFLVSKLTVDKSRWQQGNVFSCSVMHEALHNHYTQKSLSLSP
light: DIQMTQSPSSLSASVGDRVTITCRASQDIHKYIAWYQQKPGQAPRLLIQYTSTLQPGVPSRFSGSGSGTDYTFTISSLQPEDIATYYCLQYEQLRTFGGGTKVEIKRTVAAPSVFIFPPSDEQLKSGTASVVCLLNNFYPREAKVQWKVDNALQSGNSQESVTEQDSKDSTYSLSSTLTLSKADYEKHKVYACEVTHQGLSSPVTKSFNRGEC
notes: G236S introduced into H240-Hl068; also called H240-Kn120/H240-HI073/L73-k0
As a reminder, the koff is a measure of how fast the partners let go of each other. A higher koff goes with a short-lived complex. B3: in the experiment with FcγRIa, the koff was < 5e-05 s⁻¹.

B4: H240-Kn227/H240-Hl214/L73-k0 (antibody, human IgG1, kappa)
heavy 1: QDQLVQSGAEVKKPGASVKVSCKASGFNIKDTYIQWVRQAPGQGLEWMGRIDPLRKQTKYREKFEGRVTITADTSTNTAYMELSSLRSEDTAVYYCVRSGREFDYWGQGTLVTVSSASTKGPSVFPLAPSSKSTSGGTAALGCLVKDYFPEPVTVSWNSGALTSGVHTFPAVLQSSGLYSLSSVVTVPSSSLGTQTYICNVNHKPSNTKVDKKVEPKSCDKTHTCPPCPAPEEQWGPIVFLFPPKPKDTLMISRTPEVTCVVVDVSDEEPEVKFNWYVDGVEVHNAKTKPREEQYNATYRVVSVLTVLHQDWLNGKEYKCKVSNKALPAPIEKTISKAKGQPREPQVCTLPPSRDELTKNQVSLWCLVKGFYPSDIAVEWESNGQPENNYKTTPPVLDSDGSFFLYSKLTVDKSRWQQGNVFSCSVMHEALHNHYTQKSLSLSP
heavy 2: QDQLVQSGAEVKKPGASVKVSCKASGFNIKDTYIQWVRQAPGQGLEWMGRIDPLRKQTKYREKFEGRVTITADTSTNTAYMELSSLRSEDTAVYYCVRSGREFDYWGQGTLVTVSSASTKGPSVFPLAPSSKSTSGGTAALGCLVKDYFPEPVTVSWNSGALTSGVHTFPAVLQSSGLYSLSSVVTVPSSSLGTQTYICNVNHKPSNTKVDKKVEPKSCDKTHTCPPCPAPELLGGPSVFLFPPKPKDTLMISRTPEVTCVVVDVSHEEPEVKFNWYVDGVEVHNAKTKPREEQYNSTYRVVSVLTVLHQDWLNGKEYKCKVSNDALPFPIEETISKAKGQPREPQVYTLPPSRCELTKNQVSLSCAVKGFYPSDIAVEWESNGQPENNYKTTPPVLDSDGSFFLVSKLTVDKSRWQQGNVFSCSVMHEALHNHYTQKSLSLSP
light: DIQMTQSPSSLSASVGDRVTITCRASQDIHKYIAWYQQKPGQAPRLLIQYTSTLQPGVPSRFSGSGSGTDYTFTISSLQPEDIATYYCLQYEQLRTFGGGTKVEIKRTVAAPSVFIFPPSDEQLKSGTASVVCLLNNFYPREAKVQWKVDNALQSGNSQESVTEQDSKDSTYSLSSTLTLSKADYEKHKVYACEVTHQGLSSPVTKSFNRGEC
notes: 330 F in H240-Hl076
B4: the “fold binding activity against H240-Kn033/H240-Hl033/L73-k0” value in the experiment with FcγRIIIa F is 161 fold.
